Molecular target: TPA mutant tenecteplase (human) (UniProt P00750)
Assay: binding ELISA, plate coated with tenecteplase

TPA mutant tenecteplase (human), sequence (P00750 36-562, change not shown): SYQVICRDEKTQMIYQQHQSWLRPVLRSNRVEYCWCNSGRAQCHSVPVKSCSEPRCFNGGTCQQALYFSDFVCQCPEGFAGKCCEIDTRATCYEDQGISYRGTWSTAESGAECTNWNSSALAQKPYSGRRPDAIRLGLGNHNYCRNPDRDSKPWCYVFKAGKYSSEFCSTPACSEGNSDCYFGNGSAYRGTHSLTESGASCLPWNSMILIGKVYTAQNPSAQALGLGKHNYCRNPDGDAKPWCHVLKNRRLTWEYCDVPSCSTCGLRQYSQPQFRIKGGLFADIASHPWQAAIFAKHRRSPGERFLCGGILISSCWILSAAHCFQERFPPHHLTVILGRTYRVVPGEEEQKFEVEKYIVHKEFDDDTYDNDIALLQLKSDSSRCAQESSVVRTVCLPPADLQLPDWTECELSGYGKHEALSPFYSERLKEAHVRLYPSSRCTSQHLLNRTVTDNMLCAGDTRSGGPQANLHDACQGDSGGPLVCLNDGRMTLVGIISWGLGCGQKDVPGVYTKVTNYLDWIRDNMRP

B1: TPAi-1 RHP/RKA (antibody, V domains shown)
VH: QVQLVQSGAEVKKPGASVKVSCKASGNTSYWINWVRQATGQGLEWMGRIDPGGGSTGYAQKFQGRVTMTRDTSISTAYMELSSLRSEDTAVYYCASYYYAMAYWGQGTLVTVSS
VL: DVVMTQSPLSLPVTPGEPASISCRSSQSIVHSNGNTYLDWYLQKPGQSPQLLIYKVSNRASGVPDRFSGSGSGTDFTLKISRVEAEDVGVYYCFQGSHVPWTFGGGTKVEIK
EC50: 633 pM

B2: TPAi-1 RHP/RKA Fab (Fab, V domains shown)
VH: B1 VH
VL: B1 VL
EC50: 1310 pM
